IntAct's records for PubMed 20148946

Biological target: T1, unkl_human UNKL (UniProt Q9H9P5)
T1 sequence: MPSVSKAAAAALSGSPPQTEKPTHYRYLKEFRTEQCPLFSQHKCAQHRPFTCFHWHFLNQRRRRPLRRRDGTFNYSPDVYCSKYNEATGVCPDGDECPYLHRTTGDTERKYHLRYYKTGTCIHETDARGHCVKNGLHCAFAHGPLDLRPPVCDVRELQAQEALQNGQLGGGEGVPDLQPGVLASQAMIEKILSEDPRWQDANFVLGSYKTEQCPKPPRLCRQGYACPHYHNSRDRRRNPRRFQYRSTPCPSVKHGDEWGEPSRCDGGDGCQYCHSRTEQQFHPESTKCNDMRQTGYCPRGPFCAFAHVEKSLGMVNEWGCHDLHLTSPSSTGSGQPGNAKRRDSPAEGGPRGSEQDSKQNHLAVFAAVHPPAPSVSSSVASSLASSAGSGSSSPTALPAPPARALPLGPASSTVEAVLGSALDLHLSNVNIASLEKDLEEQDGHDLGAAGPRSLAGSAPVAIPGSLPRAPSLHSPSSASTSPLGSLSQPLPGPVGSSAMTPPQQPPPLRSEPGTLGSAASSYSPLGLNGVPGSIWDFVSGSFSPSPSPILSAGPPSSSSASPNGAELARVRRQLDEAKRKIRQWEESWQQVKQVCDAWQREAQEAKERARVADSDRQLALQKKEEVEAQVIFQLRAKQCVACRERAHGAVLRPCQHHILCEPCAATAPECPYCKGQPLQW

Ras-related C3 botulinum toxin substrate 1 (Homo sapiens) (from UniProt P63000) Q61L
effect of a mutation on the interaction: increasing interaction
